Data from publication PMC3431356, “Staphylococcus aureus Methicillin-Resistance Factor fmtA Is Regulated by the Global Regulator SarA” (PLoS ONE, 2012).

Molecular target: the molecule itself
Test: SEC; Superdex 75 (10/300) column, 50 mM sodium phosphate pH 7.0, 0.4 mL/min, calibrated with four standards (LMW calibration kit); mass estimated from elution

B1: staphylococcal accessory regulator A (SarA) (natural protein)
chain: MAITKINDCFELLSMVTYADKLKSLIKKEFSISFEEFAVLTYISENKEKEYYLKDIINHLNYKQPQVVKAVKILSQEDYFDKKRNEHDERTVLILVNAQQRKKIESLLSRVNKRITEANNEIEL
notes: SarA, Staphylococcus aureus strain MRSA252; the 375 bp sarA coding region cloned in pET22b with the pelB leader removed; a 124-residue protein; the entry of strain MRSA252 is not recalled; No tag is described; The reverse primer appears to carry stop codons before the HindIII site, so the His tag of pET22b is probably not on the protein (surmise); Observed mass 14,635 D, theoretical mass 14,586 …
stoichiometry N: 2
